Tested on: Smc5/6 holo-complex, Cy3-labelled (8 subunits) (Saccharomyces cerevisiae (expressed in W303-1a))
Experiment: single-molecule optical tweezers with confocal fluorescence, lifetime
Settings: biotin at the two ends, Single-molecule buffer not given in the material (20 nM Cy3-Smc5/6 and 2 mM ATP in Fig. 6b; ~5 or ~60 pN), entrapment: 10 mM HEPES-KOH pH 7.5, 150 mM KAc

Substance | binding signal [s] | binding signal (5 nM Smc5/6 then buffer only, high force) [s]
lambda DNA tether, dsDNA (low force ~5 pN, or dsDNA regions at high force) | 76 | 
lambda DNA tether, ss-dsDNA junctions at high force (~60 pN) |  | > 290

From article PMC9684126
